Residue numbers refer to the chain shown, from its start. Each block holds one binder with its values, some of them ahead of it.
Experiments:
[1] = target: the molecule itself; test: dynamic light scattering (DLS); FAM118B24–334 WT at 10 µM in PBS pH 7.4, 20 °C
[2] = target: the molecule itself; test: SEC; analytical SEC, Superdex Increase 10/300 GL, 50 mM Tris pH 8, 200 mM NaCl, 0.5 mM TCEP; injection concentrations up to 20 µM (mutant mixture: 10 µM each); sizes are coarse estimates from globular standards
FAM118B24–334-F122R = target: T1, FAM118B24–334-F122R (human, UniProt Q9BPY3 24-334, F122R); test: ITC; 25 °C, PBS; FAM118B24–334-L32R in the syringe at 500 µM titrated into FAM118B24–334-F122R in the cell at 50 µM; settings: both partners purified
T1 construct: also called head-surface mutant; not shown: His6, C-terminal, kept

B1: human FAM118B residues 24-334, C-terminally His-tagged, wild type (domain or fragment, UniProt Q9BPY3 24-334, looked up)
chain: PTKKPRKLLPSLKTKKPRELVLVIGTGISAAVAPQVPALKSWKGLIQALLDAAIDFDLLEDEESKKFQKCLHEDKNLVHVAHDLIQKLSPRTSNVRSTFFKDCLYEVFDDLESKMEDSGKQLLQSVLHLMENGALVLTTNFDNLLELYAADQGKQLESLDLTDEKKVLEWAQEKRKLSVLHIHGVYTNPSGIVLHPAGYQNVLRNTEVMREIQKLYENKSFLFLGCGWTVDDTTFQALFLEAVKHKSDLEHFMLVRRGDVDEFKKLRENMLDKGIKVISYGDDYADLPEYFKRLTCEISTRGTSAGMVREG
notes: not shown: His6, C-terminal, kept
- stoichiometry N [1]: < 10 subunits
- stoichiometry N [2]: > 8 protomers

- stoichiometry N (FAM118B24–334-F122R): ~1
B2: FAM118B24–334-L32R (domain or fragment, human, UniProt Q9BPY3 24-334, looked up)
chain: B1 chain with L9R
notes: also called tail-surface mutant; not shown: His6, C-terminal, kept
